Three molecules from article PMC2976518 can be followed below.

“And” between values parts separate entries of the source, which are not always exact repeats. Identical values can stand only once. Like-named read-outs stand apart in the source and are kept apart here.

Data set [1] concerns the target I100T Sin (mildly activated Sin mutant) (Staphylococcus aureus (plasmid pI9789)). As to the kind of experiment: AUC.
The target is the same in data set [2]. Nature of the data set: AUC. This is another data set of the same source.
Data set [3] concerns the target S9A/R54E/Q115R Sin (highly activated Sin mutant with the active site serine changed) (Staphylococcus aureus (plasmid pI9789)). Nature of the data set: AUC.
Data set [4] shares this target. As to the kind of experiment: AUC. The source holds these as a separate data set.
The target of a further data set is Sin I100T (Staphylococcus aureus (plasmid pI9789), UniProt Q53757 1-202, I100T). As to the kind of experiment: AUC sedimentation velocity.
A further data set concerns the target Sin S9A/R54E/Q115R (Staphylococcus aureus (plasmid pI9789), UniProt Q53757 1-202, S9A;R54E;Q115R). Nature of the data set: AUC sedimentation velocity and equilibrium.

A word on the stoichiometry N: it is the number of molecules, sites or subunits per partner or assembly. In the case of “I100T Sin (mildly activated Sin mutant) (enzyme)”, the stoichiometry N in data set [1] and in data set [2] was 2 throughout.

One may read the Kd as the concentration at which binding is half-saturated. Low readings indicate tighter binding, high ones weaker binding. Consider “S9A/R54E/Q115R Sin (highly activated Sin mutant with the active site serine changed) (enzyme)”, for which the Kd in data set [3] is 400 nM; in data set [4], 450 nM. Besides, in data set [3], the stoichiometry N was 2 and 4.

B1: 52-mer site I dsDNA (AUC) (dsDNA)
DNA 1: GCCTAGTTCTTTGTGAAATTTGGGTATACCCTAATCATACAAGCTTGATCTG
DNA 2: CAGATCAAGCTTGTATGATTAGGGTATACCCAAATTTCACAAAGAACTAGGC
Regarding B1, the binding result in the data set with Sin I100T and with Sin S9A/R54E/Q115R was “binds” in each case.
